Results taken from the supplement of paper PMC10126150.
± gives the standard deviation of the averaged measurements.

System: ATP
Assay: switch fluorescence ratio, 500 uM ATP over buffer (Cy3 cluster intensity, sum of 5 cycles each) (fold (ratio)); higher = stronger signal-on switching upon ATP binding; sequences stand for … in TCGTCGGCAGCGTCAGATGTGTATAAGAGACAGTTTTTTTTTTTTTTTTTTTTTTTTT…TC
Conditions: aptamer strand: ATP DNA aptamer (quencher-CACCTGGGGGAGTATTGCGGAGGAAGG + anchor), 100 nM annealed; ATP concentration: 500 uM
Summary of the method: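 Switching-strand clusters labelled with Cy3 on a modified Illumina MiSeq flow-cell were annealed to 100 nM quencher-labelled ATP aptamer, imaged in selection buffer, and re-imaged after 15 min with 500 uM ATP at 22 °C. This was done over five cycles with NaOH stripping and re-annealing in between. The fluorescence ratio is summed target-cycle over summed buffer-cycle Cy3 intensity per cluster, averaged per switch-domain sequence, excluding clusters outside 100-1000 RFU.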
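Further: ATP exposure 15 min at 22 °C before imaging.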

GTTTTCGGGA
switch fluorescence ratio: 1.03 ± 0.013

GTTTTCGGGT
switch fluorescence ratio: 1.01 ± 0.052

GTTTTCTCAT
switch fluorescence ratio: 0.989 ± 0.029

GTTTTCTGAG
switch fluorescence ratio: 0.9658 ± 0.0089

GTTTTGACAT
switch fluorescence ratio: 0.993 ± 0.0013

GTTTTGATGG
switch fluorescence ratio: 1 ± 0.019

GTTTTGATTG
switch fluorescence ratio: 1 ± 0.04

GTTTTGGAGT
switch fluorescence ratio: 1.05 ± 0.047

GTTTTGGGCT
switch fluorescence ratio: 1.01 ± 0.032

GTTTTGGTAC
switch fluorescence ratio: 1.01 ± 0.038

GTTTTGTCAA
switch fluorescence ratio: 1.02 ± 0.0038

GTTTTGTCAT
switch fluorescence ratio: 1.01 ± 0.035

GTTTTGTGTA
switch fluorescence ratio: 1.01 ± 0.074

GTTTTGTTAT
switch fluorescence ratio: 1.01 ± 0.018

GTTTTTAGAA
switch fluorescence ratio: 0.994 ± 0.031

GTTTTTATAT
switch fluorescence ratio: 1.03 ± 0.015

GTTTTTATTT
switch fluorescence ratio: 0.976 ± 0.031

GTTTTTCGAT
switch fluorescence ratio: 1.02 ± 0.001

GTTTTTCTTA
switch fluorescence ratio: 0.978 ± 0.037

GTTTTTCTTT
switch fluorescence ratio: 0.988 ± 0.024

GTTTTTGCTA
switch fluorescence ratio: 1.01 ± 0.028

GTTTTTGGTA
switch fluorescence ratio: 0.986 ± 0.021

GTTTTTGTAA
switch fluorescence ratio: 1.02 ± 0.052

GTTTTTGTCA
switch fluorescence ratio: 1.021 ± 0.008

GTTTTTGTCG
switch fluorescence ratio: 1.07 ± 0.056

GTTTTTTAGG
switch fluorescence ratio: 0.978 ± 0.0056

GTTTTTTATT
switch fluorescence ratio: 0.996 ± 0.033

GTTTTTTCAT
switch fluorescence ratio: 1.02 ± 0.023

GTTTTTTGTG
switch fluorescence ratio: 0.986 ± 0.013

TAAAAAAGG
switch fluorescence ratio: 0.997 ± 0.042

TAAAAAAGTT
switch fluorescence ratio: 1.12 ± 0.26

TAAAAAATAG
switch fluorescence ratio: 1.043 ± 0.0086

TAAAAACCTT
switch fluorescence ratio: 1.43 ± 0.35

TAAAAAGA
switch fluorescence ratio: 0.9496 ± 0.005

TAAAAAGATG
switch fluorescence ratio: 1.02 ± 0.044

TAAAAAGGGA
switch fluorescence ratio: 1.02 ± 0.02

TAAAAAGGGG
switch fluorescence ratio: 0.998 ± 0.012

TAAAAAGTAT
switch fluorescence ratio: 1 ± 0.015

TAAAAATATT
switch fluorescence ratio: 0.961 ± 0.03

TAAAAATCGT
switch fluorescence ratio: 0.997 ± 0.021

TAAAAATTAT
switch fluorescence ratio: 1 ± 0.028

TAAAAGATTT
switch fluorescence ratio: 1.01 ± 0.037

TAAAAGCTGA
switch fluorescence ratio: 0.989 ± 0.042

TAAAAGGACT
switch fluorescence ratio: 1.03 ± 0.034

TAAAAGGGGT
switch fluorescence ratio: 1.01 ± 0.05

TAAAATACA
switch fluorescence ratio: 0.983 ± 0.019

TAAAATAGTC
switch fluorescence ratio: 1.02 ± 0.034

TAAAATATGG
switch fluorescence ratio: 1.06 ± 0.11

TAAAATGGGG
switch fluorescence ratio: 1 ± 0.022

TAAAATTTAA
switch fluorescence ratio: 1.01 ± 0.05

TAAAATTTTT
switch fluorescence ratio: 1.002 ± 0.01

TAAACACGTG
switch fluorescence ratio: 0.987 ± 0.053

TAAACAGTGA
switch fluorescence ratio: 1.01 ± 0.038

TAAACCGTGG
switch fluorescence ratio: 1.02 ± 0.024

TAAACCTAGC
switch fluorescence ratio: 1.46 ± 0.062

TAAACGCGGG
switch fluorescence ratio: 1.04 ± 0.093

TAAACGCGTA
switch fluorescence ratio: 0.998 ± 0.029

TAAACGTATT
switch fluorescence ratio: 1.14 ± 0.13

TAAACTAAAA
switch fluorescence ratio: 0.97499 ± 3.2e-05

TAAACTCCA
switch fluorescence ratio: 1.05 ± 0.042

TAAAGAGGGT
switch fluorescence ratio: 1 ± 0.033

TAAAGATTTC
switch fluorescence ratio: 1.01 ± 0.069

TAAAGATTTT
switch fluorescence ratio: 1.01 ± 0.041

TAAAGCAGGA
switch fluorescence ratio: 0.993 ± 0.03

TAAAGCATGG
switch fluorescence ratio: 0.98 ± 0.019

TAAAGCTAGG
switch fluorescence ratio: 0.995 ± 0.065

TAAAGGATAT
switch fluorescence ratio: 1.01 ± 0.014

TAAAGGCTAC
switch fluorescence ratio: 1.17 ± 0.2

TAAAGGGAGC
switch fluorescence ratio: 1.12 ± 0.19

TAAAGGGATC
switch fluorescence ratio: 0.978 ± 0.017

TAAAGGGGCG
switch fluorescence ratio: 1.01 ± 0.031

TAAAGGGGGC
switch fluorescence ratio: 1.05 ± 0.017

TAAAGGGGTG
switch fluorescence ratio: 1.01 ± 0.038

TAAAGGGTTA
switch fluorescence ratio: 0.985 ± 0.014

TAAAGGGTTT
switch fluorescence ratio: 0.982 ± 0.021

TAAAGGTCAT
switch fluorescence ratio: 0.9959 ± 0.0018

TAAAGGTTTT
switch fluorescence ratio: 0.974 ± 0.04

TAAAGTGATT
switch fluorescence ratio: 0.988 ± 0.025

TAAAGTGGCG
switch fluorescence ratio: 1.05 ± 0.039

TAAAGTTAGG
switch fluorescence ratio: 1 ± 0.011

TAAATAATAT
switch fluorescence ratio: 1.01 ± 0.019

TAAATACTCT
switch fluorescence ratio: 1.16 ± 0.032

TAAATCAGTA
switch fluorescence ratio: 0.9888 ± 0.0048

TAAATCCGGG
switch fluorescence ratio: 1 ± 0.022

TAAATCGTGC
switch fluorescence ratio: 1.022 ± 0.0064

TAAATGAATT
switch fluorescence ratio: 1.05 ± 0.096

TAAATGCCGG
switch fluorescence ratio: 1.14 ± 0.26

TAAATGCGGG
switch fluorescence ratio: 0.975 ± 0.039

TAAATGGAAA
switch fluorescence ratio: 0.999 ± 0.051

TAAATGGAGG
switch fluorescence ratio: 0.9891 ± 0.0061

TAAATGGGGG
switch fluorescence ratio: 0.979 ± 0.034

TAAATGGTGG
switch fluorescence ratio: 0.977 ± 0.015

TAAATGGTTT
switch fluorescence ratio: 1.02 ± 0.023

TAAATGTGCG
switch fluorescence ratio: 0.996 ± 0.031

TAAATGTTAC
switch fluorescence ratio: 1.0644 ± 0.0005

TAAATTCAGA
switch fluorescence ratio: 0.994 ± 0.031

TAAATTGCGG
switch fluorescence ratio: 0.966 ± 0.013

TAAATTGGGG
switch fluorescence ratio: 0.983 ± 0.024

TAAATTTAAT
switch fluorescence ratio: 0.982 ± 0.034

TAACAATTCC
switch fluorescence ratio: 1.26 ± 0.013

TAACACATTT
switch fluorescence ratio: 0.98 ± 0.059

TAACGAAGGA
switch fluorescence ratio: 1.03 ± 0.051

TAACGCCATC
switch fluorescence ratio: 1.51 ± 0.035

TAACGCTGTT
switch fluorescence ratio: 1.01 ± 0.0068

TAACGGAAAA
switch fluorescence ratio: 1 ± 0.053

TAACGGAGAC
switch fluorescence ratio: 1.35 ± 0.32

TAACGGAGGT
switch fluorescence ratio: 1.02 ± 0.014

TAACGGCATT
switch fluorescence ratio: 1.08 ± 0.037

TAACGGGGGA
switch fluorescence ratio: 1.01 ± 0.062

TAACGTAACA
switch fluorescence ratio: 1.26 ± 0.068

TAACGTATGG
switch fluorescence ratio: 1.03 ± 0.021

TAACTAAAGG
switch fluorescence ratio: 0.9971 ± 0.0099

TAACTACGAG
switch fluorescence ratio: 1.07 ± 0.011

TAACTAGGGG
switch fluorescence ratio: 1.49 ± 0.042

TAACTATAAG
switch fluorescence ratio: 1 ± 0.018

TAACTATTCC
switch fluorescence ratio: 1.23 ± 0.082

TAACTGGCGT
switch fluorescence ratio: 0.991 ± 0.04

TAACTGTAGG
switch fluorescence ratio: 1.02 ± 0.033

TAACTGTTCC
switch fluorescence ratio: 1.12 ± 0.11

TAAGAAAAAA
switch fluorescence ratio: 1.017 ± 0.0075

TAAGAAAACT
switch fluorescence ratio: 1.36 ± 0.22

TAAGAACGAT
switch fluorescence ratio: 0.987 ± 0.053

TAAGAAGGCG
switch fluorescence ratio: 0.9734 ± 0.0047

TAAGAAGTTT
switch fluorescence ratio: 0.996 ± 0.028

TAAGACGCAA
switch fluorescence ratio: 1.62 ± 0.12

TAAGACGTCC
switch fluorescence ratio: 1.016 ± 0.0088

TAAGAGACGA
switch fluorescence ratio: 0.98 ± 0.024

TAAGAGACGC
switch fluorescence ratio: 1.014 ± 0.0061

TAAGAGACGG
switch fluorescence ratio: 0.991 ± 0.056

TAAGAGATGT
switch fluorescence ratio: 0.978 ± 0.034

TAAGAGGGGC
switch fluorescence ratio: 1 ± 0.037

TAAGATAAAT
switch fluorescence ratio: 1 ± 0.021

TAAGATGGG
switch fluorescence ratio: 1.01 ± 0.019

TAAGATGTCA
switch fluorescence ratio: 1.02 ± 0.034

TAAGATTTTT
switch fluorescence ratio: 1.01 ± 0.032

TAAGCAAAAG
switch fluorescence ratio: 1.19 ± 0.1

TAAGCATGGA
switch fluorescence ratio: 1.04 ± 0.013

TAAGCCATTA
switch fluorescence ratio: 1.01 ± 0.0038

TAAGCCGAGG
switch fluorescence ratio: 0.987 ± 0.016

TAAGCGAGTG
switch fluorescence ratio: 0.9832 ± 0.0032

TAAGCGATCT
switch fluorescence ratio: 1.0192 ± 0.00013

TAAGCGGGCT
switch fluorescence ratio: 0.973 ± 0.024

TAAGCGTTGT
switch fluorescence ratio: 0.98 ± 0.054

TAAGCTCAAT
switch fluorescence ratio: 0.979 ± 0.012

TAAGCTGGAG
switch fluorescence ratio: 1.07 ± 0.14

TAAGCTGGGG
switch fluorescence ratio: 0.9861 ± 0.0052

TAAGCTTGGC
switch fluorescence ratio: 1.02 ± 0.026

TAAGCTTTTG
switch fluorescence ratio: 1.025 ± 0.0084

TAAGGAAAAG
switch fluorescence ratio: 1.01 ± 0.05

TAAGGACAGG
switch fluorescence ratio: 1.047 ± 0.0049

TAAGGAGAAT
switch fluorescence ratio: 0.9676 ± 0.0046

TAAGGCAAGG
switch fluorescence ratio: 1.03 ± 0.021

TAAGGCAATT
switch fluorescence ratio: 1.06 ± 0.041

TAAGGCGGTT
switch fluorescence ratio: 0.984 ± 0.021

TAAGGCTGTT
switch fluorescence ratio: 0.953 ± 0.023

TAAGGGAAAA
switch fluorescence ratio: 0.977 ± 0.023

TAAGGGAGTT
switch fluorescence ratio: 0.9874 ± 0.0095

TAAGGGATGG
switch fluorescence ratio: 0.973 ± 0.043

TAAGGGATGT
switch fluorescence ratio: 0.995 ± 0.049

TAAGGGGACG
switch fluorescence ratio: 1.02 ± 0.023

TAAGGGGGAC
switch fluorescence ratio: 1.01 ± 0.053

TAAGGGTACG
switch fluorescence ratio: 1.03 ± 0.058

TAAGGGTGGC
switch fluorescence ratio: 1.04 ± 0.035

TAAGGTATGA
switch fluorescence ratio: 1.002 ± 0.0076

TAAGGTATTT
switch fluorescence ratio: 1.01 ± 0.023

TAAGGTTATG
switch fluorescence ratio: 0.973 ± 0.017

TAAGGTTTAT
switch fluorescence ratio: 0.9979 ± 0.0072

TAAGTATAAT
switch fluorescence ratio: 0.999 ± 0.017

TAAGTATGAC
switch fluorescence ratio: 0.982 ± 0.032

TAAGTATTGG
switch fluorescence ratio: 0.977 ± 0.037

TAAGTGCCAC
switch fluorescence ratio: 1.01 ± 0.024

TAAGTGGAAG
switch fluorescence ratio: 1.01 ± 0.029

TAAGTGGGGC
switch fluorescence ratio: 0.957 ± 0.085

TAAGTGGTTG
switch fluorescence ratio: 0.989 ± 0.052

TAAGTGTTGC
switch fluorescence ratio: 1 ± 0.037

TAAGTTGTGC
switch fluorescence ratio: 1.02 ± 0.15

TAATAAAAGG
switch fluorescence ratio: 0.998 ± 0.041

TAATAAACAA
switch fluorescence ratio: 1 ± 0.024

TAATAAGAGA
switch fluorescence ratio: 0.985 ± 0.015

TAATAAGGAG
switch fluorescence ratio: 1.004 ± 0.0074

TAATAAGTTT
switch fluorescence ratio: 1.0262 ± 0.00033

TAATACGTTA
switch fluorescence ratio: 1.197 ± 0.0026

TAATACTCCT
switch fluorescence ratio: 2.05 ± 0.073

TAATAGAAGG
switch fluorescence ratio: 0.977 ± 0.0098

TAATAGCATA
switch fluorescence ratio: 1.03 ± 0.033

TAATAGGCAG
switch fluorescence ratio: 1.01 ± 0.029

TAATAGGGGT
switch fluorescence ratio: 1 ± 0.018

TAATAGGTTT
switch fluorescence ratio: 1.1 ± 0.22

TAATAGTAAG
switch fluorescence ratio: 0.996 ± 0.053

TAATAGTGAT
switch fluorescence ratio: 0.983 ± 0.018

TAATAGTTAC
switch fluorescence ratio: 1.01 ± 0.041

TAATCAGAGG
switch fluorescence ratio: 0.994 ± 0.019

TAATCCGCTT
switch fluorescence ratio: 2.49 ± 0.2

TAATCGATGG
switch fluorescence ratio: 1.009 ± 0.0012

TAATCGGGGG
switch fluorescence ratio: 1.04 ± 0.043

TAATCTAGAA
switch fluorescence ratio: 1.019 ± 0.0017

TAATCTGGCT
switch fluorescence ratio: 0.993 ± 0.011

TAATGACTCA
switch fluorescence ratio: 1.034 ± 0.008

TAATGATTTC
switch fluorescence ratio: 0.992 ± 0.011

TAATGCGATT
switch fluorescence ratio: 1.04 ± 0.017
